Data from patent publication US20030157096A1.

Assays:
[1] = target: IL-TIF protein (human) (human) (UniProt Q9GZX6); assay: cell-based or functional assay
[2] = target: zcytor11 and CRF2-4 receptors co-expressed on transfected BaF3 or BHK cells (human) (UniProt Q08334); assay: cell-based or functional assay
Sequence of zcytor11 and CRF2-4 receptors co-expressed on transfected BaF3 or BHK cells (human) (chain, as listed by the source limits assumed, chain 1 of 2): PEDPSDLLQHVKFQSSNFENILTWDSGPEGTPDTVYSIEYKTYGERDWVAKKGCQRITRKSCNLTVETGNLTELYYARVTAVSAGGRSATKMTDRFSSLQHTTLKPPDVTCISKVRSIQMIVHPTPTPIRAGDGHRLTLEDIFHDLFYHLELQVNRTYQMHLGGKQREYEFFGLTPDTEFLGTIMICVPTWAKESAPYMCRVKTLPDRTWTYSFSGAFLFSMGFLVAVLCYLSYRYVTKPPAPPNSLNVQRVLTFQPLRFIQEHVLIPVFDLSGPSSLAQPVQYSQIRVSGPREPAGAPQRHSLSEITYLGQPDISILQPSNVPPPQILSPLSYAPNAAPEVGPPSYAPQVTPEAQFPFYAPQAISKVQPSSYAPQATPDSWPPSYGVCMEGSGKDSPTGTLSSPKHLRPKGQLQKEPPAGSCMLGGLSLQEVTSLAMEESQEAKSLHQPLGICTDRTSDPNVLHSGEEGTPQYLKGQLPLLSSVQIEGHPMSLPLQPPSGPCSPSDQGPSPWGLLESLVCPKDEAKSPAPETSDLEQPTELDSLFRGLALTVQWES
Sequence of zcytor11 and CRF2-4 receptors co-expressed on transfected BaF3 or BHK cells (human) (Q08334 20-325 limits assumed, chain 2 of 2): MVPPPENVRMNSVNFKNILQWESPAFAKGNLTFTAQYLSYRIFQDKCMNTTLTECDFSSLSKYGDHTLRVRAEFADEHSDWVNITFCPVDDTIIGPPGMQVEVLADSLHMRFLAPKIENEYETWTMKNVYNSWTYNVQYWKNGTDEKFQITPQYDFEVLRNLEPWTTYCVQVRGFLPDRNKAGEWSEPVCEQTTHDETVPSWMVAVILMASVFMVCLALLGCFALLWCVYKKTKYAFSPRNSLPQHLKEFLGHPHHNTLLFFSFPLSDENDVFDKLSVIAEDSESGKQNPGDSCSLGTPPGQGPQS

Sequence of IL-TIF protein (human) (human) (Q9GZX6 34-179 limits assumed): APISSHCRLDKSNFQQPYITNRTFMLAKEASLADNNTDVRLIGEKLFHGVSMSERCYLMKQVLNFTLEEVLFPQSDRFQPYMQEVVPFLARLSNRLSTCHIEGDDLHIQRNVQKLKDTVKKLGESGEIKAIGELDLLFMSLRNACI
Sequence of CRF2-4/zcytor11-Fc soluble receptor heterodimer (Fc fusion) (chain): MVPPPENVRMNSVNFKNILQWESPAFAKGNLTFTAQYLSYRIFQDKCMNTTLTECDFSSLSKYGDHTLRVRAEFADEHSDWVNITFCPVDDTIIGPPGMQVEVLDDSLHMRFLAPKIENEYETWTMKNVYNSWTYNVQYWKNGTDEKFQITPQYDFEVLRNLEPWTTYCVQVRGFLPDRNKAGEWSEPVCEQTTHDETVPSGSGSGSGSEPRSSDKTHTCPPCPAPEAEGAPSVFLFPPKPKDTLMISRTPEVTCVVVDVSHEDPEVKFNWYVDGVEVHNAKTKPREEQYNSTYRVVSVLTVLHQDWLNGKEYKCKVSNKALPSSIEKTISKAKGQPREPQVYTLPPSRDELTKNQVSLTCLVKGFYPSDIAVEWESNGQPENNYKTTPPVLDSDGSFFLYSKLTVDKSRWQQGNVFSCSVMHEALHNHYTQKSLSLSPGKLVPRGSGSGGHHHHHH
Sequence of CRF2-4/zcytor11-Fc soluble receptor heterodimer (Fc fusion) (chain): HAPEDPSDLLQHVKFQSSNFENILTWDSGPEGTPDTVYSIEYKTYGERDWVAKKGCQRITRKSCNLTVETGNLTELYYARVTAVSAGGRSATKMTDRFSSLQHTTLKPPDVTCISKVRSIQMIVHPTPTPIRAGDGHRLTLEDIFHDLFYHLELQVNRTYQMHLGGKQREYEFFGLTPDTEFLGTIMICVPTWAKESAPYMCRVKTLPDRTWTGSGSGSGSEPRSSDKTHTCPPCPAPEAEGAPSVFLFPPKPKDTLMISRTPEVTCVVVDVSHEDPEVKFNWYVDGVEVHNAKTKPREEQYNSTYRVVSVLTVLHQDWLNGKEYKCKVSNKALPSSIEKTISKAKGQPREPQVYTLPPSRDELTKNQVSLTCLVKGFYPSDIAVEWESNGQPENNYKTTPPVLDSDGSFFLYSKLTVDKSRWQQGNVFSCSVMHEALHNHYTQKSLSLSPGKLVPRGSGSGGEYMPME

Row | inhibition of IL-TIF-induced proliferation (Alamar Blue), concentration at which inhibition was barely detectable [1] | inhibition of IL-TIF-induced proliferation (Alamar Blue), concentration giving complete inhibition [1] | inhibition of IL-TIF-induced proliferation (Alamar Blue), concentration giving partial inhibition [1] | Alamar Blue proliferation of BaF3/CRF2-4/zcytor11 cells, fold over background [2] | Substance
1 | 1.6 ng/mL | 25 to 200 ng/mL | 3.1 to 12.5 ng/mL |  | CRF2-4/zcytor11-Fc soluble receptor heterodimer (Fc fusion)
2 |  |  |  | 30 fold | IL-TIF protein (human) (from UniProt Q9GZX6 34-179) (ligand)
